From US20260193342A1 (ZOETIS SERVICES, published 2026)

Key:
[1] = target: T1, canine FcRn complex (FcRn-α subunit and β-microglobulin) (canine, UniProt A0A8I3PFR8 25-347, biotin on the BAP tag by BirA (Example 5 only)); experiment: SPR (Biacore), biotinylated FcRn on SA chip, IgG flowed, pH 6, 15 C
[2] = target: T1, canine FcRn complex (FcRn-α subunit and …); experiment: SPR (Biacore), biotinylated FcRn on SA chip, IgG flowed, pH 7.4, 15 C

T1 sequence (A0A8I3PFR8 entry or part of it, one chain of several): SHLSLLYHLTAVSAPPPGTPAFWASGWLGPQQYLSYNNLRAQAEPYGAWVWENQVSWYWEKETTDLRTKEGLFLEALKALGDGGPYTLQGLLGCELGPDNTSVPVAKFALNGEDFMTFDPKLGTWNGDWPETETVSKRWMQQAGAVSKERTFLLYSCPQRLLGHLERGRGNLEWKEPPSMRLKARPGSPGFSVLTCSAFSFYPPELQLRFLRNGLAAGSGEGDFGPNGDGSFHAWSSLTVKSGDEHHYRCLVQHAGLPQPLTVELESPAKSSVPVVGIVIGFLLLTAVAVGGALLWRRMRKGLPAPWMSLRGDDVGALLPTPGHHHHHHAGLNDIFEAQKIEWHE

Kd [1] | Kd [2] | Binder
34.5 nM | – | mAb1, caninized anti-IL31 antibody 34D03, canine IgGD, WT (antibody, VH/VL: the caninized 34D03 entries of the listing; also called ID No. 37) heavy: EVQLVESGGDLVKPGGSLRLSCVASGFTFSNYGMSWVRQAPGKGLQWVATISYGGSYTYYPDNIKGRFTISRDNAKNTLYLQMNSLRAEDTAMYYCVRGYGYDTMDYWGQGTLVTVSSASTTAPSVFPLAPSCGSTSGSTVALACLVSGYFPEPVTVSWNSGSLTSGVHTFPSVLQSSGLYSLSSTVTVPSSRWPSETFTCNVVHPASNTKVDKPVPKESTCKCISPCPVPESLGGPSVFIFPPKPKDILRITRTPEITCVVLDLGREDPEVQISWFVDGKEVHTAKTQPREQQFNSTYRVVSVLPIEHQDWLTGKEFKCRVNHIGLPSPIERTISKARGQAHQPSVYVLPPSPKELSSSDTVTLTCLIKDFFPPEIDVEWQSNGQPEPESKYHTTAPQLDEDGSYFLYSKLSVDKSRWQQGDTFTCAVMHEALQNHYTDLSLSHSPGK VL: EIVMTQSPASLSLSQEEKVTITCKASQSVSFAGTGLMHWYQQKPGQAPKLLIYRASNLEAGVPSRFSGSGSGTDFSFTISSLEPEDVAVYYCQQSREYPWTFGQGTKLEIK
10.6 nM | 1520 nM | mAb2 of Table 4A, caninized anti-NGF antibody ZTS-841, canine IgGA, N434W (antibody, also called ID No. 44) heavy: EVQLVESGGDLVKPGGSLRLSCVASGFTFSSHGMHWVRQSPGKGLQWVAVINSGGSSTYYTDAVKGRFTISRDNAKNTVYLQMNSLRAEDTAMYYCAKESVGGWEQLVGPHFDYWGQGTLVIVSSASTTAPSVFPLAPSCGSTSGSTVALACLVSGYFPEPVTVSWNSGSLTSGVHTFPSVLQSSGLHSLSSMVTVPSSRWPSETFTCNVVHPASNTKVDKPVFNECRCTDTPPCPVPEPLGGPSVLIFPPKPKDILRITRTPEVTCVVLDLGREDPEVQISWFVDGKEVHTAKTQSREQQFNGTYRVVSVLPIEHQDWLTGKEFKCRVNHIDLPSPIERTISKARGRAHKPSVYVLPPSPKELSSSDTVSITCLIKDFYPPDIDVEWQSNGQQEPERKHRMTPPQLDEDGSYFLYSKLSVDKSRWQQGDPFTCAVMHETLQWHYTDLSLSHSPGK VL: QSVLTQPTSVSGSLGQRVTISCSGSTNNIGILGASWYQLFPGKAPKLLVYGNGNRPSGVPDRFSGADSGDSVTLTITGLQAEDEADYYCQSFDTTLGAHVFGGGTHLTVL
71 nM | – | mAb2 of Table 4A, caninized anti-NGF antibody ZTS-841, canine IgGD, WT (antibody, also called ID No. 55) heavy: EVQLVESGGDLVKPGGSLRLSCVASGFTFSSHGMHWVRQSPGKGLQWVAVINSGGSSTYYTDAVKGRFTISRDNAKNTVYLQMNSLRAEDTAMYYCAKESVGGWEQLVGPHFDYWGQGTLVIVSSASTTAPSVFPLAPSCGSTSGSTVALACLVSGYFPEPVTVSWNSGSLTSGVHTFPSVLQSSGLYSLSSTVTVPSSRWPSETFTCNVVHPASNTKVDKPVPKESTCKCISPCPVPESLGGPSVFIFPPKPKDILRITRTPEITCVVLDLGREDPEVQISWFVDGKEVHTAKTQPREQQFNSTYRVVSVLPIEHQDWLTGKEFKCRVNHIGLPSPIERTISKARGQAHQPSVYVLPPSPKELSSSDTVTLTCLIKDFFPPEIDVEWQSNGQPEPESKYHTTAPQLDEDGSYFLYSKLSVDKSRWQQGDTFTCAVMHEALQNHYTDLSLSHSPGK VL: QSVLTQPTSVSGSLGQRVTISCSGSTNNIGILGASWYQLFPGKAPKLLVYGNGNRPSGVPDRFSGADSGDSVTLTITGLQAEDEADYYCQSFDTTLGAHVFGGGTHLTVL
12 nM | – | mAb2 of Table 4A, caninized anti-NGF antibody ZTS-841, canine IgGD, N434H (antibody, also called ID No. 56) heavy: EVQLVESGGDLVKPGGSLRLSCVASGFTFSSHGMHWVRQSPGKGLQWVAVINSGGSSTYYTDAVKGRFTISRDNAKNTVYLQMNSLRAEDTAMYYCAKESVGGWEQLVGPHFDYWGQGTLVIVSSASTTAPSVFPLAPSCGSTSGSTVALACLVSGYFPEPVTVSWNSGSLTSGVHTFPSVLQSSGLYSLSSTVTVPSSRWPSETFTCNVVHPASNTKVDKPVPKESTCKCISPCPVPESLGGPSVFIFPPKPKDILRITRTPEITCVVLDLGREDPEVQISWFVDGKEVHTAKTQPREQQFNSTYRVVSVLPIEHQDWLTGKEFKCRVNHIGLPSPIERTISKARGQAHQPSVYVLPPSPKELSSSDTVTLTCLIKDFFPPEIDVEWQSNGQPEPESKYHTTAPQLDEDGSYFLYSKLSVDKSRWQQGDTFTCAVMHEALQHHYTDLSLSHSPGK VL: QSVLTQPTSVSGSLGQRVTISCSGSTNNIGILGASWYQLFPGKAPKLLVYGNGNRPSGVPDRFSGADSGDSVTLTITGLQAEDEADYYCQSFDTTLGAHVFGGGTHLTVL
14.3 nM | 9530 nM | mAb2 of Table 4A, caninized anti-NGF antibody ZTS-841, canine IgGA, N434Y (antibody, also called ID No. 45) heavy: EVQLVESGGDLVKPGGSLRLSCVASGFTFSSHGMHWVRQSPGKGLQWVAVINSGGSSTYYTDAVKGRFTISRDNAKNTVYLQMNSLRAEDTAMYYCAKESVGGWEQLVGPHFDYWGQGTLVIVSSASTTAPSVFPLAPSCGSTSGSTVALACLVSGYFPEPVTVSWNSGSLTSGVHTFPSVLQSSGLHSLSSMVTVPSSRWPSETFTCNVVHPASNTKVDKPVFNECRCTDTPPCPVPEPLGGPSVLIFPPKPKDILRITRTPEVTCVVLDLGREDPEVQISWFVDGKEVHTAKTQSREQQFNGTYRVVSVLPIEHQDWLTGKEFKCRVNHIDLPSPIERTISKARGRAHKPSVYVLPPSPKELSSSDTVSITCLIKDFYPPDIDVEWQSNGQQEPERKHRMTPPQLDEDGSYFLYSKLSVDKSRWQQGDPFTCAVMHETLQYHYTDLSLSHSPGK VL: QSVLTQPTSVSGSLGQRVTISCSGSTNNIGILGASWYQLFPGKAPKLLVYGNGNRPSGVPDRFSGADSGDSVTLTITGLQAEDEADYYCQSFDTTLGAHVFGGGTHLTVL
20.4 nM | – | mAb2 of Table 4A, caninized anti-NGF antibody ZTS-841, canine IgGC, N434H (antibody, also called ID No. 54) heavy: EVQLVESGGDLVKPGGSLRLSCVASGFTFSSHGMHWVRQSPGKGLQWVAVINSGGSSTYYTDAVKGRFTISRDNAKNTVYLQMNSLRAEDTAMYYCAKESVGGWEQLVGPHFDYWGQGTLVIVSSASTTAPSVFPLAPSCGSQSGSTVALACLVSGYIPEPVTVSWNSVSLTSGVHTFPSVLQSSGLYSLSSMVTVPSSRWPSETFTCNVAHPATNTKVDKPVAKECECKCNCNNCPCPGCGLLGGPSVFIFPPKPKDILVTARTPTVTCVVVDLDPENPEVQISWFVDSKQVQTANTQPREEQSNGTYRVVSVLPIGHQDWLSGKQFKCKVNNKALPSPIEEIISKTPGQAHQPNVYVLPPSRDEMSKNTVTLTCLVKDFFPPEIDVEWQSNGQQEPESKYRMTPPQLDEDGSYFLYSKLSVDKSRWQRGDTFICAVMHEALHHHYTQISLSHSPGK VL: QSVLTQPTSVSGSLGQRVTISCSGSTNNIGILGASWYQLFPGKAPKLLVYGNGNRPSGVPDRFSGADSGDSVTLTITGLQAEDEADYYCQSFDTTLGAHVFGGGTHLTVL
25.2 nM | 573 nM | mAb1, caninized anti-IL31 antibody 34D03, canine IgGA, N434Y (antibody, VH/VL: the caninized 34D03 entries of the listing; also called ID No. 7; copies: 2 + 2) heavy: EVQLVESGGDLVKPGGSLRLSCVASGFTFSNYGMSWVRQAPGKGLQWVATISYGGSYTYYPDNIKGRFTISRDNAKNTLYLQMNSLRAEDTAMYYCVRGYGYDTMDYWGQGTLVTVSSASTTAPSVFPLAPSCGSTSGSTVALACLVSGYFPEPVTVSWNSGSLTSGVHTFPSVLQSSGLHSLSSMVTVPSSRWPSETFTCNVVHPASNTKVDKPVFNECRCTDTPPCPVPEPLGGPSVLIFPPKPKDILRITRTPEVTCVVLDLGREDPEVQISWFVDGKEVHTAKTQSREQQFNGTYRVVSVLPIEHQDWLTGKEFKCRVNHIDLPSPIERTISKARGRAHKPSVYVLPPSPKELSSSDTVSITCLIKDFYPPDIDVEWQSNGQQEPERKHRMTPPQLDEDGSYFLYSKLSVDKSRWQQGDPFTCAVMHETLQYHYTDLSLSHSPGK light: EIVMTQSPASLSLSQEEKVTITCKASQSVSFAGTGLMHWYQQKPGQAPKLLIYRASNLEAGVPSRFSGSGSGTDFSFTISSLEPEDVAVYYCQQSREYPWTFGQGTKLEIKRNDAQPAVYLFQPSPDQLHTGSASVVCLLNSFYPKDINVKWKVDGVIQDTGIQESVTEQDKDSTYSLSSTLTMSSTEYLSHELYSCEITHKSLPSTLIKSFQRSEC
139 nM | 175 nM | mAb1, caninized anti-IL31 antibody 34D03, canine IgGB, N434A (antibody, VH/VL: the caninized 34D03 entries of the listing; also called ID No. 9; copies: 2 + 2) heavy: EVQLVESGGDLVKPGGSLRLSCVASGFTFSNYGMSWVRQAPGKGLQWVATISYGGSYTYYPDNIKGRFTISRDNAKNTLYLQMNSLRAEDTAMYYCVRGYGYDTMDYWGQGTLVTVSSASTTAPSVFPLAPSCGSTSGSTVALACLVSGYFPEPVTVSWNSGSLTSGVHTFPSVLQSSGLYSLSSMVTVPSSRWPSETFTCNVAHPASKTKVDKPVPKRENGRVPRPPDCPKCPAPEMLGGPSVFIFPPKPKDTLLIARTPEVTCVVVDLDPEDPEVQISWFVDGKQMQTAKTQPREEQFNGTYRVVSVLPIGHQDWLKGKQFTCKVNNKALPSPIERTISKARGQAHQPSVYVLPPSREELSKNTVSLTCLIKDFFPPDIDVEWQSNGQQEPESKYRTTPPQLDEDGSYFLYSKLSVDKSRWQRGDTFICAVMHEALHAHYTQESLSHSPGK light: EIVMTQSPASLSLSQEEKVTITCKASQSVSFAGTGLMHWYQQKPGQAPKLLIYRASNLEAGVPSRFSGSGSGTDFSFTISSLEPEDVAVYYCQQSREYPWTFGQGTKLEIKRNDAQPAVYLFQPSPDQLHTGSASVVCLLNSFYPKDINVKWKVDGVIQDTGIQESVTEQDKDSTYSLSSTLTMSSTEYLSHELYSCEITHKSLPSTLIKSFQRSEC
3.21 nM | – | mAb1, caninized anti-IL31 antibody 34D03, canine IgGD, N434H (antibody) chain 1: EVQLVESGGDLVKPGGSLRLSCVASGFTFSNYGMSWVRQAPGKGLQWVATISYGGSYTYYPDNIKGRFTISRDNAKNTLYLQMNSLRAEDTAMYYCVRGYGYDTMDYWGQGTLVTVSSASTTAPSVFPLAPSCGSTSGSTVALACLVSGYFPEPVTVSWNSGSLTSGVHTFPSVLQSSGLYSLSSTVTVPSSRWPSETFTCNVVHPASNTKVDKPVPKESTCKCISPCPVPESLGGPSVFIFPPKPKDILRITRTPEITCVVLDLGREDPEVQISWFVDGKEVHTAKTQPREQQFNSTYRVVSVLPIEHQDWLTGKEFKCRVNHIGLPSPIERTISKARGQAHQPSVYVLPPSPKELSSSDTVTLTCLIKDFFPPEIDVEWQSNGQPEPESKYHTTAPQLDEDGSYFLYSKLSVDKSRWQQGDTFTCAVMHEALQHHYTDLSLSHSPGK chain 2: EIVMTQSPASLSLSQEEKVTITCKASQSVSFAGTGLMHWYQQKPGQAPKLLIYRASNLEAGVPSRFSGSGSGTDFSFTISSLEPEDVAVYYCQQSREYPWTFGQGTKLEIKRNDAQPAVYLFQPSPDQLHTGSASVVCLLNSFYPKDINVKWKVDGVIQDTGIQESVTEQDKDSTYSLSSTLTMSSTEYLSHELYSCEITHKSLPSTLIKSFQRSEC
